From paper PMC12025923 (Cells, 2025)

B1: wild-type 14-3-3γ-3xHA [human] / GFP-SLP76 [human] (parent)
chain 1: MVDREQLVQKARLAEQAERYDDMAAAMKNVTELNEPLSNEERNLLSVAYKNVVGARRSSWRVISSIEQKTSADGNEKKIEMVRAYREKIEKELEAVCQDVLSLLDNYLIKNCSETQYESKVFYLKMKGDYYRYLAEVATGEKRATVVESSEKAYSEAHEISKEHMQPTHPIRLGLALNYSVFYYEIQNAPEQACHLAKTAFDDAIAELDTLNEDSYKDSTLIMQLLRDNLTLWTSDQQDDDGGEGNN
chain 2: MALRNVPFRSEVLGWDPDSLADYFKKLNYKDCEKAVKKYHIDGARFLNLTENDIQKFPKLRVPILSKLSQEINKNEERRSIFTRKPQVPRFPEETESHEEDNGGWSSFEEDDYESPNDDQDGEDDGDYESPNEEEEAPVEDDADYEPPPSNDEEALQNSILPAKPFPNSNSMYIDRPPSGKTPQQPPVPPQRPMAALPPPPAGRNHSPLPPPQTNHEEPSRSRNHKTAKLPAPSIDRSTKPPLDRSLAPFDREPFTLGKKPPFSDKPSIPAGRSLGEHLPKIQKPPLPPTTERHERSSPLPGKKPPVPKHGWGPDRRENDEDDVHQRPLPQPALLPMSSNTFPSRSTKPSPMNPLPSSHMPGAFSESNSSFPQSASLPPYFSQGPSNRPPIRAEGRNFPLPLPNKPRPPSPAEEENSLNEEWYVSYITRPEAEAALRKINQDGTFLVRDSSKKTTTNPYVLMVLYKDKVYNIQIRYQKESQVYLLGTGLRGKEDFLSVSDIIDYFRKMPLLLIDGKNRGSRYQCTLTHAAGYP

Variants of: B1
Test: co-immunoprecipitation, quantified Western blot
Settings: with GFP-SLP76 [human]; N2a cells; read off a plot

| ratio to parent (fold of wild-type) | Variant |
| --- | --- |
| 0.2 | chain 1 MVDREQLVQKARLAEQAERYDDMAAAMKNVTELNEPLSNEERNLLSVAYKNVVGARCSSWRVISSIEQKTSADGNEKKIEMVRAYREKIEKELEAVCQDVLSLLDNYLIKNCSETQYESKVFYLKMKGDYYRYLAEVATGEKRATVVESSEKAYSEAHEISKEHMQPTHPIRLGLALNYSVFYYEIQNAPEQACHLAKTAFDDAIAELDTLNEDSYKDSTLIMQLLRDNLTLWTSDQQDDDGGEGNN [chain 1 R57C] |
